Target: microtubules assembled from bovine brain phosphocellulose-tubulin with taxol (bovine, UniProt Q6B856 1-445)
Assay: co-sedimentation

Chain of microtubules assembled from bovine brain phosphocellulose-tubulin with taxol (Q6B856 whole entry, looked up): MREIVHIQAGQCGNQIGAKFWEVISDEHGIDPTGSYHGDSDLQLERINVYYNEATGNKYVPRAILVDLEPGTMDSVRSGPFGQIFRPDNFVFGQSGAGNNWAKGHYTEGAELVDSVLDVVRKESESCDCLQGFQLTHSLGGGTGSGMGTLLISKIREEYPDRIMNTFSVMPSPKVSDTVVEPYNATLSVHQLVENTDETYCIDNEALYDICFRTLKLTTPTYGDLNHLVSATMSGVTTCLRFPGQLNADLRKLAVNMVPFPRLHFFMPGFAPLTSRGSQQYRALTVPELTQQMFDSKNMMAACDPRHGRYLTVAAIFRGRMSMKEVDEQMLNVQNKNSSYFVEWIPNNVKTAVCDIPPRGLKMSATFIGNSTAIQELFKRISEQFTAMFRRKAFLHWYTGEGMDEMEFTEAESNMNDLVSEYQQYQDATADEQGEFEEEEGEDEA

- fold increase of bound protein, sheared against unsheared microtubules: 1.8 fold
B1: GMAP-210 (Golgi microtubule-associated protein 210), endogenous (natural protein, human (endogenous in HeLa), UniProt Q15643 1-1979, looked up)
chain: MSSWLGGLGSGLGQSLGQVGGSLASLTGQISNFTKDMLMEGTEEVEAELPDSRTKEIEAIHAILRSENERLKKLCTDLEEKHEASEIQIKQQSTSYRNQLQQKEVEISHLKARQIALQDQLLKLQSAAQSVPSGAGVPATTASSSFAYGISHHPSAFHDDDMDFGDIISSQQEINRLSNEVSRLESEVGHWRHIAQTSKAQGTDNSDQSEICKLQNIIKELKQNRSQEIDDHQHEMSVLQNAHQQKLTEISRRHREELSDYEERIEELENLLQQGGSGVIETDLSKIYEMQKTIQVLQIEKVESTKKMEQLEDKIKDINKKLSSAENDRDILRREQEQLNVEKRQIMEECENLKLECSKLQPSAVKQSDTMTEKERILAQSASVEEVFRLQQALSDAENEIMRLSSLNQDNSLAEDNLKLKMRIEVLEKEKSLLSQEKEELQMSLLKLNNEYEVIKSTATRDISLDSELHDLRLNLEAKEQELNQSISEKETLIAEIEELDRQNQEATKHMILIKDQLSKQQNEGDSIISKLKQDLNDEKKRVHQLEDDKMDITKELDVQKEKLIQSEVALNDLHLTKQKLEDKVENLVDQLNKSQESNVSIQKENLELKEHIRQNEEELSRIRNELMQSLNQDSNSNFKDTLLKEREAEVRNLKQNLSELEQLNENLKKVAFDVKMENEKLVLACEDVRHQLEECLAGNNQLSLEKNTIVETLKMEKGEIEAELCWAKKRLLEEANKYEKTIEELSNARNLNTSALQLEHEHLIKLNQKKDMEIAELKKNIEQMDTDHKETKDVLSSSLEEQKQLTQLINKKEIFIEKLKERSSKLQEELDKYSQALRKNEILRQTIEEKDRSLGSMKEENNHLQEELERLREEQSRTAPVADPKTLDSVTELASEVSQLNTIKEHLEEEIKHHQKIIEDQNQSKMQLLQSLQEQKKEMDEFRYQHEQMNATHTQLFLEKDEEIKSLQKTIEQIKTQLHEERQDIQTDNSDIFQETKVQSLNIENGSEKHDLSKAETERLVKGIKERELEIKLLNEKNISLTKQIDQLSKDEVGKLTQIIQQKDLEIQALHARISSTSHTQDVVYLQQQLQAYAMEREKVFAVLNEKTRENSHLKTEYHKMMDIVAAKEAALIKLQDENKKLSTRFESSGQDMFRETIQNLSRIIREKDIEIDALSQKCQTLLAVLQTSSTGNEAGGVNSNQFEELLQERDKLKQQVKKMEEWKQQVMTTVQNMQHESAQLQEELHQLQAQVLVDSDNNSKLQVDYTGLIQSYEQNETKLKNFGQELAQVQHSIGQLCNTKDLLLGKLDIISPQLSSASLLTPQSAECLRASKSEVLSESSELLQQELEELRKSLQEKDATIRTLQENNHRLSDSIAATSELERKEHEQTDSEIKQLKEKQDVLQKLLKEKDLLIKAKSDQLLSSNENFTNKVNENELLRQAVTNLKERILILEMDIGKLKGENEKIVETYRGKETEYQALQETNMKFSMMLREKEFECHSMKEKALAFEQLLKEKEQGKTGELNQLLNAVKSMQEKTVVFQQERDQVMLALKQKQMENTALQNEVQRLRDKEFRSNQELERLRNHLLESEDSYTREALAAEDREAKLRKKVTVLEEKLVSSSNAMENASHQASVQVESLQEQLNVVSKQRDETALQLSVSQEQVKQYALSLANLQMVLEHFQQEEKAMYSAELEKQKQLIAEWKKNAENLEGKVISLQECLDEANAALDSASRLTEQLDVKEEQIEELKRQNELRQEMLDDVQKKLMSLANSSEGKVDKVLMRNLFIGHFHTPKNQRHEVLRLMGSILGVRREEMEQLFHDDQGGVTRWMTGWLGGGSKSVPNTPLRPNQQSVVNSSFSELFVKFLETESHPSIPPPKLSVHDMKPLDSPGRRKRDTNAPESFKDTAESRSGRRTDVNPFLAPRSAAVPLINPAGLGPGGPGHLLLKPISDVLPTFTPLPALPDNSAGVVLKDLLKQ
